Laboratory results taken from the supplement of paper PMC9170038.

Test system: MS2 coat protein
Assay: apparent KD of MS2 coat protein; designed switch direction (-1 OFF switch, 1 ON switch): 1; higher = weaker reporter binding
In short: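 The apparent KD reported per design is the median over clusters of curve fits to normalised cluster fluorescence. The RNA switches were transcribed on Illumina chips by stalled E. coli RNA polymerase. SNAP-549-labelled MS2 coat protein was titrated from 0.7 or 1.5 nM, doubling up to 3 µM, in Tris-HCl pH 7.5 buffer containing KCl, MgCl2, BSA, DTT, tRNA and Tween-20, with no input, 200 uM small-molecule ligand, or an oligonucleotide input.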

[1] = input ligand: microRNA oligo, concentration not stated
[2] = Eterna round: R95, input ligand: FMN 200 uM
[3] = Eterna round: R95, input ligand: microRNA oligo, concentration not stated
[4] = Eterna round: R95, input ligand: none

| Sequence | apparent KD of MS2 coat protein (input ligand: FMN 200 uM) | apparent KD of MS2 coat protein [1] | apparent KD of MS2 coat protein (input ligand: none) | apparent KD of MS2 coat protein [2] | apparent KD of MS2 coat protein [3] | apparent KD of MS2 coat protein [4] |
| --- | --- | --- | --- | --- | --- | --- |
| AACAAUCUAUCUGAGGAUAUCAUGUCAAAGACAUGAGGAUCACCCAUGUUGCAGGAAACUGCUCAUGAGAAGGCAGAUAGAUUGA [SS2: 1129] (Eterna round: R96, puzzle: Same State 2) | 41 nM | 329 nM | 385 nM | – | – | – |
| AGGACGAGCACAGGAUAUCCGCGGAACAGCCGCGGAGAAGGGUGAAGUCAUGGAAAGAAAAGACAUGAGGAUCACCCAUGUAAA [Ageteerer] (Eterna round: R96, puzzle: Same State NG 1) | 223 nM | 1320 nM | 680 nM | – | – | – |
| UUGAAGAAUUAAGGAUAUUGAAUACAUAUGUUUAACAUGAGGAUCACCCAUGUGGGUUGCGGUAUCGAGAAGGUAAAUUACUAA [Mat - Same State NG 2 - JL mod - D1] (Eterna round: R96, puzzle: Same State NG 2) | 140 nM | 80.5 nM | 112 nM | – | – | – |
| CUGAGCGAUUAAGGAUAUCACGUCGUUUAGACGUGAGAAGGUGAUCAUAACAUGAGGAUCACCCAUGUAUUACAUGAAGCUCAG [SSNG1/3-A3] (Eterna round: R96, puzzle: Same State NG 1) | 614 nM | 98.1 nM | 128 nM | – | – | – |
| AGCUAGUACCGAGGAUAUACAUACAUGAGGAUCACCCAUGUAUACAUGAAUUAAUGAGACUACAUGUAGAAGGCGGUACUAGCA [JL SSNG2 1.22] (Eterna round: R96, puzzle: Same State NG 2) | – | 54 nM | – | – | – | – |
| GAGGGACAGACCAACAUGAGGAUCACCCAUGUCCUCGCUGGUCAGGAUAUCCCGCCAACAGGCGAGGAGAAGGGACGGUGAACC (Eterna round: R96, puzzle: Same State NG 3) | 1110 nM | 425 nM | 724 nM | – | – | – |
| UAAUUAAAGCAAGGAUAUCACGUCGAUUAGACGUGAGAAGGUGCUCCUUACAUGAGGAUCACCCAUGUAUAACAUGAAUAAUUA [SSNG1/10-B2] (Eterna round: R96, puzzle: Same State NG 1) | 169 nM | 522 nM | 792 nM | – | – | – |
| GGAGCCGGCCUAGGAUAUUUCAUAAUUUAACAUGAGGAUCACCCAUGUAGGCCAGAAGGCCUUGGGAAGAAGGAGGUCGGCUCC [Loop Effect - U26,U27,U28] (Eterna round: R96, puzzle: Same State NG 2) | 17.4 nM | 53.6 nM | 76.9 nM | – | – | – |
| GUAGCAUACCGAGGAUAUUCAUACAUGAGGAUCACCCAUGUUUAGGCCAGCAUUAGCUGGCCUUGGGAGAAGGCGGAAUGCUAC [Xeonanis - 20 Mod54] (Eterna round: R96, puzzle: Same State NG 2) | 17.7 nM | 13.5 nM | 22.6 nM | – | – | – |
| UAAAAUAACACAGGAUAUGCAGACAACUCGUCGGCAGAAGGGUGAGACAUGAGGAUCACCCAUGUAAAAUAAGGGCGCCGCCCG [Diatera] (Eterna round: R96, puzzle: Same State NG 1) | 995 nM | 219 nM | 777 nM | – | – | – |
| UUGAAGAAUUAAGGAUAUUGAGUACAUAUGUUAAACAUGAGGAUCACCCAUGUGGGUUGCGGUAUCGAGAAGGUAAAUUACUAG [Mat - same State NG 2 - JL mod - D68] (Eterna round: R96, puzzle: Same State NG 2) | 90.9 nM | 46.8 nM | 70.8 nM | – | – | – |
| UUAAUUAAUUAAUUAUACAUGAGGAUCACCCAUGUAAGUGAUCAGGAUAUCAGCUCGAAUAGAGCUGAGAAGGGAUACAUGAAU [SSNG3/12-A1] (Eterna round: R96, puzzle: Same State NG 3) | – | 101 nM | – | – | – | – |
| AGUCCAGCCAGAGCUGGACAAAAGCAUGUACAUGAGGAUCACCCAUGUUCAUGUACAAGCUUUUUGCUCGUCUUAAU [Mat - hsa-mir-208a - Mod of JL - 59] (puzzle: Sensor for hsa-mir-208a) | – | – | – | 482 nM | 14.1 nM | 553 nM |
| UUAACAUGAGGAUCACCCAUGUAUACGUAGUUUGCAUUUUGACAGGAUAUUGUUUAUCUAUAUAGCAAGAAGGGUCGUUAGUCU [JR_SSNG3_Sub009] (Eterna round: R96, puzzle: Same State NG 3) | 27 nM | 31.8 nM | 41.9 nM | – | – | – |
| GGUAGGUUACUACCAAACAUGAGGAUCACCCAUGUUGAUGGGAAGGAUAUGGUACCUUUUAGGUACCAGAAGGUCUAAUCGAUC [NGss mod of JL's mod of Fisker 4] (Eterna round: R96, puzzle: Same State NG 3) | 120 nM | 115 nM | 166 nM | – | – | – |
| AACUUACUAUCUCAGGAUAUCAUGUCAAAGACAUGAGGAUCACCCAUGUACCAGGAAACUGGUUAUGAGAAGGGAGAUAGUAAGA [Mat - Same State 2 - Mod - D49] (puzzle: Same State 2) | – | – | – | 167 nM | 128 nM | 611 nM |
| AUUAUUUCAUGAGGAUAUGGCACCUUAUUGGUGCCAGAAGGCAUGUCUAUUGACAUGAGGAUCACCCAUGUAUUAUAUUAUAUA [Eli NG1ss - 88] (Eterna round: R96, puzzle: Same State NG 1) | 57.4 nM | 658 nM | 493 nM | – | – | – |
| UUCUCAUUUACAUGAGGAUCACCCAUGUUUUUUUGUCGGAAAUAGGAUAUAGGUCUCUCGUUUUACUAGAAGGAUUUCCUUAUU [JR_SSNG3_Sub089] (Eterna round: R96, puzzle: Same State NG 3) | 70.4 nM | 70.7 nM | 58.9 nM | – | – | – |
| GGUGAGAGAGUCAAGGAUAUUAAAGGAGAGACAUGAGGAUCACCCAUGUAAGAGAGAGAGGAGAGUGAGAAGGUGAAGAGAGUGG [Altered State 2-25 - Jieux - Same State 2] (puzzle: Same State 2) | – | – | – | 30.4 nM | 25 nM | 60.6 nM |
| AGCUAUUAAUCAGGAUAUGGUCACAUGAGGAUCACCCAUGUAUAGAUGAUAAAAUGUGGUCUACACUAGAAGGGAUUGCUAACA [SameState NG2 #59] (Eterna round: R96, puzzle: Same State NG 2) | 89.5 nM | 78.9 nM | 106 nM | – | – | – |
| CAUCGUUUGAUAGGAUAUCGCUAUACAUGAGGAUCACCCAUGUUUACCACGCUGGUUUUUCAUACCGAGAAGGAUUCUGAUGAG [salish99_SSNG02_r04_012] (Eterna round: R96, puzzle: Same State NG 2) | 55.3 nM | 38.3 nM | 47.6 nM | – | – | – |
| AGAAAACAUGAGGAUCACCCAUGUAUAGUGAAUACAGGAUAUCACCGACGGAAUAAUUGGUGAGAAGGGUGAUCGC [Ceaqu] (puzzle: Same State 1) | – | – | – | 21.2 nM | 11.8 nM | 23.2 nM |
| ACCCAAAGUAUAUGGGAACGAGCUUUUUAACAUGAGGAUCACCCAUGUACUCGUCUUAUAAGCAGUCGAAAGACUGC [Sensor 100 - 3] (puzzle: Sensor for hsa-mir-208a) | – | – | – | 359 nM | 19.2 nM | 390 nM |
